According to the DeepSol protein solubility set:

Experiment: soluble on expression in E. coli; label from the status in PepcDB or PDB records

Soluble on expression in E. coli, not soluble:
MGSDKIHHHHHHMAANRFNGFTDYGIGIGLRIPHYRHILDNKPVVDWFEIISENYMIDGGRPLAVLDAILEQYRVVQHGVSMYFGSVDPLNREHLKRLKNLTRRTKTPWLTDHLCWGSVDGRYTHDLMPLPYTWEAIDVTVAKIKQVRDYLEIPVAVENVSSYAEFHESEMTEWEFLNEVVERADCGILLDVNNIYVSSMNHSFDPHVYVDSVPAERVAQIHIAGHSKYEKYILDTHDHPVIDPVWQLYAHAIRRCGPTATLLEWDDHIPSFEEVHNEALKAKKFLAENAEPVEKKIAAAEARV
MGSDKIHHHHHHMACVRDKPVSGPPTSLSAPHLRISLAFRGGLCPYSRARPEKDYAFKGNFVLRDLIANGQSMRTISLPRGRQRLHAMPTSTGYEVREDEIYDWDGRKRGQTPFTVLQHTISGTGRLRYENRNYRLQENDTLLVLVPHNHRYWLASDERWEYFWISMNGEEALRIHKSILSISGPVFRLKPATIDHLADCSLRLINGAASAGAASAIAYEAAMALYDDVFGSHAFAEKLSAMQPVIDHINANLDRPLPVADLVQISGLSRAHFSRCFAESEGLPPAEFVLQQRLQRAAKLLTKADFLPVKEVAILCGFEDANYFSKVFRRLYGTTPSQFRTTGMYANLRTPARRGVRVSDDET
MGSDKIHHHHHHMADKGIIFSDAMVRALLDGTKTQTRRLCAWPNNPNTPQLTYIVACDEPGWFGDEEGEVQFRVPHAQGDRLYVREAWSVRGTYTDVVEVGYRASANRSHTEFVEQWPVGDAIPGKGSWPQWPKYGPSIHMPRWASRMWLQITDVRVQRLQEISAADCRAEGLERGAVGGLLPAYRGSADLEWRIYADDAYHDLWDSLHGESGTRWADNPWVTVYTFDVHKGNIGKAARG
MGSDKIHHHHHHMADMTDQLPEVRKSHPYVMYEMMKDIPNGIDRTLSSMQNADLSFIGDDLIFLGNGTAYHSAYVGSQILDRVSKRHAVVQAYEYLNYMQSNAATIAISHTGKTKSTVDAVIKARKTAKTAGITHYADSPLYNSVDYPIAIADEDKSLCNTKAFFNNAFASLYIADYYGNLSYDMKNLRSEIAKHVGKDDPEMRSAAEELDQIDDIFVLGSGFNFPVAREAAQKIKEATHIHAEGIEFEEFNHGCTAVMDENTLVILIEGEKDRARGDQIARASRYVGSKTLAINGVGDISVYNDPQDDLSAAFLNTLDLYYLAYYLAVRRNINPDMLRFEDRRYRDYDSVVFPPGEH
MGSDKIHHHHHHMAEELLPLKTVRNPRDLGGYTGFAGRKIKAGLLLRTGTVAAISEEDGNYLRARGVKTIIDLRSPQECRKRPDKKLAGIQNVNIPVNSRDQTKAEASLAELARQYGLDPLAGFRHMVESYRLMVTEEHAQAAFGQVLAYLAETEGGTIYHCSEGKDRTGLVTVFLLTVLGVDPETIRQDYLLSAPYLNVYRAKRDKEARENGESLVQRANLRSLGTVNNEYLDS
MGSDKIHHHHHHMAGFRPKASPRLSPDAERLVADALALDASGSRMEDAYWERRLSQRLGRLLKNGSQTALDAALEHLFKHNADASDVLAEQAETLAESAMVEVDGVRYDALLVAAPILAHTRYAIPSGSLKPDLAQTLAVHLQAHVLATGTKVALSPYLYSIDQLPRTHSDTFALTHKLAAAALSGTVPKVDLRDLPETAPILADPRYLLAVVVAPHEQALFRWQEDAKEHHAERSTCLEQWRSQVQATVALLLPGCEFELLLPDAFFLSCRESDKSIRPLTVRAAVNYLSGTLDVPAGQLAAVVAAFGEEVVEEYRVGFTMRGEKDVIYGIVWPVYGREAGEVDADEKGNPLEQICEELRNAGVEDIFRHAALFDPEYCEDCGTPLYADRNGEIVHAELPEDAPTQQPLFH
MGSDKIHHHHHHMAGLRVFVSSTCYDLSVIRSQLRIFIQSLGHEPLMSDYSDLLYDPRLHTHTSCVDEVATADIVVLIVGARFGGKTVPEALAKLDFDLLKKESKSTESLIKKENLSVTQLEILKAVESGIPVFTFVDSSVWHDHALYEKNKDKPIINDISFPSIEKAETASFIFEFINFLRHRARGNSVYTFSKLQDIEDTLRRQWSSLFQKLIQEQRSKAFEAKRLDNLTEQFEDLKTAILTSIGTTNERDVARGVVRFRRLIDFVRSLGLKDHNFLIRGHHPWDELLHYAEIEKVLDAAELPEEFIFHRRNFGSRPRMFLIKNDGTFFELRTSPDFFHSLSLEWEAFMDLPEDTREIIVDALSEMRPGMGPLRYIREPFDYHVDKWIHQERLLKDIDDSDHESSHS
MGSDKIHHHHHHMAGWRTVVVNTHSKLSYKNNHLIFKDSYQTEMIHLSEIDILIMETTDIVLSTMLIKRLVDENILVIFCDDKRLPTAMLMPYYARHDSSLQLSRQMSWIEDVKADVWTSIIAQKILNQSFYLGECSFFEKSQSIMNLYHDLEPFDPSNREGHAARIYFNTLFGNDFSREQDNPINAGLDYGYSLLLSMFAREVVKCGCMTQFGLKHANQFNQFNLASDIMEPFRPIVDRIIYENRQSDFVKMKRELFSMFSETYSYNGKEMYLSNIVSDYTKKVIKSLNSDGNGIPEFRI
MGSDKIHHHHHHMAHPLSRIIDQLKREPSRTGSIVITVFGDAIVPRGGSVWLGTLLEFFESLDIDSGVVRTAMSRLAADGWLTREKVGRNSFYRLADKGHQTFEAATRHIYDPPPSDWTGRFELLLINGEDRDASREALRNAGFGSPLPGVWVAPSGVPVPDEAAGAIRLEVSAEDDSGRRLLSASWPLDRTADAYLKFMKTFEPLRTAIGRGTTLSDADAFTARILLIHHYRRVVLRDPLLPESLLPADWPGRAARELCGEIYRALLAPSEQWLDGHGTNEKGPLPAARKLLERRFGA
MGSDKIHHHHHHMAIKNVSIVYPNRFGGGIACLAVHVLTSHLNKYRDISANAYFIENYSKIKNSDAILITLQYENDYFNVVKIVKELKAQNPNAIFIAGGPCAISNPLPIQEFFDVFVVGEIEGTDTMYQLINGNFEIPGVYVPKTYNNEKIKRIYPKKLGIDDYPISQVTHESGAYGKAYLLEIGRGCIRNCKFCMAKCIYAPPRYRKIEDLKHLVDEGLKNTDADKVSLIAPSVSDYRYVLDLCAHISEKNVSISPSSLRADTITDELLEYLNLKTLTIAPEAGSEVLRKKIDKGITEENILNAVDIAKTHGISTVKLYYMVGFPDETEEDIEEIINLTKKIKDNVRKVDVSINPMVPKPHTPFEDFEFDMDSKTKIKYIEKSLRKIKVSVDFEKFNSMVAQTVLARGGSELSKVLNESRNTIELIKNVDLDNYINKIEEKPWDFIEI
MGSDKIHHHHHHMAIRSNHILVSRTDNIGDIVLTLPMVARLRQLNPKAKISFLCRAYAAPLVRFCTDIDEVIELENIADDPAGFLRKSGIDTVILAQPDRTLAQAAFRARVRHRIGNARQKIYLMLYCNRRVRFSKRTTEDHEAQINFRFLSPYGSRDIPTREQIPDLYHFDIPEDKAISDMQAPYAFNLVLHTKSNGHGREWPIEHYAALAELLLARRDVHLWLSGSAKEGEWLKANGGALLAKPNVTSLCGTQTLGQLTTFIHQADGLIASGTGPLHLSAAIGQRTLGLFPPTRPMHPGRWAALGKRAQNLVRDKSCRDCEKLETISCDCMVQLSPQSVLEIVEGWIRDKSAA
MGSDKIHHHHHHMAKEILVAYGVDIDAVAGWLGSYGGEDSPDDISRGLFAGEVGIPRLLKLFKKYHLPATWFSPGHSIETFSEQMKMIVDAGHEVGAHGYSHENPIAMTAKQEEDVLLKSVELIKDLTGKAPTGYVAPWWEFSNITNELLLKHGFKYDHSLMHNDFTPYYVRVGDSWSKIDYSLEAKDWMKPLIRGVETDLVEIPANWYLDDLPPMMFIKKSPNSFGFVSPHDIGQMWIDQFDWVYREMDYAVFSMTIHPDVSARPQVLLMHEKIIEHINKHEGVRWVTFNEIADDFLKRNPRKK
MGSDKIHHHHHHMAKFDLTTPWGRFKTYLHYLWNDHAYLRLGFSNAHWISPELVRANQPWPFQLAWWKKRGIKTIVNLRGGFDGSFYALEKDACERLGLNFVDFVITSREVPIRERVRGAKELFERIEYPALMHCKSGADRAGIMSVFYAHYRLGQPIREAMQQLGPRYLHIKHGNTGVLDYVFEQYLEKGEPKGLTFSDWVESDDYDPVEMKKTFRAGMLGKVLTDKILRRE
MGSDKIHHHHHHMAKIDFRNKINWRRRFRSPPRVETERDILRIFESDRGRIVNSPAIRRLQQKTQVFPLERNAAVRTRLTHSLEVQQVGRYIAKEVLSRLKELRLLEEYGLEELTGPFESVVEMACLMHDIGNPPFGHFGEAAINDWFRQRLAPGDALGQPLTDDRCEVQALRLHDGETSLNALRRKVRQDLCSFEGNAQGIRLVHTLMRMNLTWAQVGCILKYTRPAWWSEETPASHSYLMKKPGYYLAEEEYVARLRKELDLAPYNRFPLTWIMEAADDISYCVADLEDAVEKRIFSAEQLYQHLYDAWGSHEKGSLFSQVVENAWEKSRANYLKQSAEDQFFMYLRVNTLNKLVPYAARRFIDNLPAIFTGDFNHALLEDDSDCSQLLELYKNVAMKQVFSHPDVEQLELQGYRVISGLLDIYQPLLKLSLEDFSELVAQERVRRLPIASRLYQKLSTRHRLAYVEAVNKLARTAPEFALMEYYYRCRLIQDYISGMTDLYAWDEYRRLMAVE
MGSDKIHHHHHHMAKIESNDSHLRGILKDELYYQIPIYQRPYQWTEENCEKLLDDLFFNYEDDREGDYFCGSLVLIAISKDSKATTYDVVDGQQRLSTFILLAKVLADLYNDCLDPKNLEHLQEGWKDRHTERKRLSFNTIGSNAEYDFQDALEHFNDSQASKNKNNKNNYLKNAICLKDYLMKKEIKNINDFIEWLYSNVKFITIICPNIDKALRIFNVLNARGLPLNATDIFKGELLKHAKEHEREEFVSRWNALSQKCSDNDLTMETLFSWYNLSQSGNF
MGSDKIHHHHHHMAKLCHKPLHILFFRHSLLGRGGDKMVVCQANALARRGHQVTIRTATLATPFSLDDRIEINLTGSSSVAATLMDLFKGRFSFDLLIVDIIPLAVLAGIRFGRTKVIYYVQDWDVSYYRSLAFRSLIRLLYFVERSFLRIPVIVVSEHLLGKIGRTGIGATYVVENGIDLTLFNSKGRLHPAFAPGHIPTFLLFIRNDWRKGSDLALKVVKKLADRYPHAFGVVAVGNRPAIRPSQIDWIDKGFMDERQIADLMKQCDLFLYPSRHEGFGLMALEAFACGCLVVTTTAVGFAHDIENSLVAEVDDEQGLYSRLCCLLEKQIEIAPLVKKAEEFASEHPLELCMDRFCSVIEELNQ
MGSDKIHHHHHHMAKQLPDIGDYKYGFKDKDVSIFRAGRGLTKEIVEEISRMKEEPQWMLDFRLKSLDKFYEMPMPQWGGDLNDLDFDEITYYVKPSEKSEKSWDEVPDEIKATFDKLGIPEAEQKYLAGVSAQYESEVVYHNMKEDLEALGIVFKDTDSALKENEDIFREHFGKVIPPTDNKFAALNSAVWSGGSFIYVPKGVKVDTPLQAYFRINSENMGQFERTLIIVDEGAHVHYVEGCTAPVYTTNSLHSAVVEIIIKKDAYCRYTTIQNWANNVYNLVTKRAVCEENATMEWIDGNIGSKLTMKYPAVILKGEGARGLTLSIAIAGKGQHQDAGAKMIHLAPNTSSTIVSKSIAKHGGKVTYRGIVHFGPKAKNSRSNIECDTLIMDNQSTSDTIPYNEIKNDYVSLEHEAKVSKVSEEQLFYLMSRGISEQEATEMIVMGFIEPFTRELPMEYAVEMNRLIKFEMEGSIG
